Test results from PMC9359528, “DNA binding by the Rad9A subunit of the Rad9-Rad1-Hus1 complex”.
Where a chain is given by its changes, count along the chain named.

Key:
Assay in all cases: EMSA; EMSA: 20 mM Tris-HCl pH 7.6, 80 mM NaCl, 1 mM DTT, 1 mM EDTA, 1.5% glycerol, 200 ng/ml poly dI/dC, 50 ug/ml BSA, 10 nM DNA; 6% native PAGE in 50 mM Tris-borate
WT Rad9A 1-266 = molecular target: T1, WT Rad9A 1-266 (Homo sapiens, UniProt Q99638 1-266); conditions: protein: recombinant; tags: N-terminal His; label: 5'-fluorescein (6-carboxyfluorescein) on HC40; blunt
T1 sequence: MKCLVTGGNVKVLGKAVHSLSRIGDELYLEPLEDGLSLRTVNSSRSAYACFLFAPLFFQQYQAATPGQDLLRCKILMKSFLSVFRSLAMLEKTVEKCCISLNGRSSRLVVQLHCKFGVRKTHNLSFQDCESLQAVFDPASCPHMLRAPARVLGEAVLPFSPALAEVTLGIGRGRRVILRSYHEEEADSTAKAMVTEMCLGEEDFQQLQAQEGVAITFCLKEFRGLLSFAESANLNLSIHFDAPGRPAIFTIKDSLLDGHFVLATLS

QM1 Rad9A 1-266 = molecular target: T2, QM1 Rad9A 1-266 (Homo sapiens, UniProt Q99638 1-266, K11A;K15A;R22A;K78A); conditions: protein: recombinant; tags: His; label: 5'-fluorescein (6-carboxyfluorescein) on HC40; blunt
T2 sequence: T1 sequence with K11A, K15A, R22A, K78A

WT Rad9A 134-266 = molecular target: T3, WT Rad9A 134-266 (Homo sapiens, UniProt Q99638 134-266); conditions: protein: recombinant; tags: N-terminal His; label: 5'-fluorescein (6-carboxyfluorescein) on HC40; blunt
T3 sequence: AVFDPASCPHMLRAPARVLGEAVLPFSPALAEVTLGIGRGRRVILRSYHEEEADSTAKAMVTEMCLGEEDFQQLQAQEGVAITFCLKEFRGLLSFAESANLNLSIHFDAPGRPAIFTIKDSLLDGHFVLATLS

DM Rad9A 94-266 = molecular target: T4, DM Rad9A 94-266 (Homo sapiens, UniProt Q99638 94-266, R150A;R223A); conditions: protein: recombinant; tags: His; label: 5'-fluorescein (6-carboxyfluorescein) on HC40; blunt
T4 sequence: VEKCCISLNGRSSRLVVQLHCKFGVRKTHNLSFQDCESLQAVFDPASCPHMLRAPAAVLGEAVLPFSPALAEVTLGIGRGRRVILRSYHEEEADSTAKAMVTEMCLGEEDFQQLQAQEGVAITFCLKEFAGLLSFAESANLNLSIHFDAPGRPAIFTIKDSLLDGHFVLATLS

K220A Rad9A 94-266 = molecular target: T5, K220A Rad9A 94-266 (Homo sapiens, UniProt Q99638 94-266, K220A); conditions: protein: recombinant; tags: His; label: 5'-fluorescein (6-carboxyfluorescein) on HC40; blunt
T5 sequence: T4 sequence with A57R, K127A, A130R

R223A Rad9A 94-266 = molecular target: T6, R223A Rad9A 94-266 (Homo sapiens, UniProt Q99638 94-266, R223A); conditions: protein: recombinant; tags: His; label: 5'-fluorescein (6-carboxyfluorescein) on HC40; blunt
T6 sequence: T4 sequence with A57R

TM Rad9A 1-266 = molecular target: T7, TM Rad9A 1-266 (Homo sapiens, UniProt Q99638 1-266, K11A;K15A;R22A); conditions: protein: recombinant; tags: His; label: 5'-fluorescein (6-carboxyfluorescein) on HC40; blunt
T7 sequence: T1 sequence with K11A, K15A, R22A

WT Rad9A 1-133 = molecular target: T8, WT Rad9A 1-133 (Homo sapiens, UniProt Q99638 1-133); conditions: protein: recombinant; tags: N-terminal His; label: 5'-fluorescein (6-carboxyfluorescein) on HC40; blunt
T8 sequence: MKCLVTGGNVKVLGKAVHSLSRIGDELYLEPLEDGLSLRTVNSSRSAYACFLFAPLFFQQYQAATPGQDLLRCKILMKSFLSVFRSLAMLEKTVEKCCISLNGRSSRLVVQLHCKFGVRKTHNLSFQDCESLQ

WT Rad9A 94-266 = molecular target: T9, WT Rad9A 94-266 (Homo sapiens, UniProt Q99638 94-266); conditions: protein: recombinant; tags: His; label: 5'-fluorescein (6-carboxyfluorescein) on HC40; blunt
T9 sequence: T4 sequence with A57R, A130R

LD Rad9A 94-266 = molecular target: T10, LD Rad9A 94-266 (Homo sapiens, UniProt Q99638 94-266, del160-163); conditions: protein: recombinant; tags: His; label: 5'-fluorescein (6-carboxyfluorescein) on HC40; blunt
T10 sequence: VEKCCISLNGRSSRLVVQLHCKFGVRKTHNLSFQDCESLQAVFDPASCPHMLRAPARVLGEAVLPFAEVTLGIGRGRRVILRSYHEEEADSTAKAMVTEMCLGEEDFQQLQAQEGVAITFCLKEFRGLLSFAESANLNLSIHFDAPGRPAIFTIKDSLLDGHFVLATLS

TM Rad9A 1-133 = molecular target: T11, TM Rad9A 1-133 (Homo sapiens, UniProt Q99638 1-133, K11A;K15A;R22A); conditions: protein: recombinant; tags: His; label: 5'-fluorescein (6-carboxyfluorescein) on HC40; blunt
T11 sequence: T8 sequence with K11A, K15A, R22A

B1: HC40/HG40 (dsDNA)
DNA 1: CCGAGGAATTCGCCTTCTGCTCCATAGCCACTGGTTGTAG
DNA 2: CTACAACCAGTGGCTATGGAGCAGAAGGCGAATTCCTCGG
What does the source list for B1?
Kd (WT Rad9A 1-266): 50 ± 10 nM; Kd (QM1 Rad9A 1-266): 1770 ± 790 nM; Kd (WT Rad9A 134-266): 3000 ± 620 nM; Kd (DM Rad9A 94-266): 7790 ± 880 nM; Kd (K220A Rad9A 94-266): 6400 ± 750 nM; Kd (R223A Rad9A 94-266): 1170 ± 690 nM; Kd (TM Rad9A 1-266): 120 ± 30 nM; Kd (WT Rad9A 1-133): 820 ± 150 nM; Kd (WT Rad9A 94-266): 1500 ± 400 nM; Kd (LD Rad9A 94-266): 6120 ± 1270 nM; Kd (TM Rad9A 1-133): 7740 ± 680 nM
